Test: yeast display, Sf9 membrane polyspecificity reagent, FACS + sequencing; frameworks hold sequencing errors
Procedure, shortened: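 Polyreactivity labels are assigned by the sorting gate from which each nanobody was recovered. The gates were low and high (top ~1%), set on anti-HA fluorescence for expression and streptavidin fluorescence for reagent binding. Before sorting, galactose-induced (36–48 hours) yeast display cells were stained for 1 hour at 4 °C with 10% biotinylated, detergent-solubilized Sf9 membrane reagent.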

Row | Sequence | polyreactivity (PSR sort gate)
1 | QVQLVESGGGLVQAGGSLRLSCAASGRIFLDYVMGWYRQAPGKEREVVAAISWSGDRTDYADSVKGRFTISLDNAKNTVYLQMNSLKPEDTAVYYCATTWYFAYSDDYKFDYWGQGTQVTVSS | low polyreactivity
2 | QVQLVESGGGLVQAGGSLRLSCAASGSIFRYNAMGWYRQAPGKERELVAAIRSGGSTYYADSVKGRFTISRDNAKNTVYLQMNSLKPEDTAVYYCNARRYVGYDYWGQGTQVTVSS | high polyreactivity
3 | QVQLVESWGGLVQAGGSLRLSCAASGRIFALYAMGWYRKAPGKERELVASINSRVGSTNYADSVKGRFTISRDNAKNTVYLQMNSLKPEDTAVYYCNARFVYAYQRYYWGQGTQVTVSS | high polyreactivity
4 | QVQLVESGGRLFQAGGSLRLSCAASGRSYRYYAMGGYTKAPGKERELFAAISSGTRTNYADSVKGRFTISRDNAKNTVYFQMNSLKPEDTAVYYCKADGYRGYYGRNKSKYDFWGQGTQVTVSS | high polyreactivity
5 | QVQLVESGGGLVQAGGSLRLSCAASGLILANYAMGWYRQAPGKERELVAAISSSGGSTYYADSVKGRFTISRDNAKNTVYLQMNSLKPEDTAVYYCAAYPLYRRRWTGDYWGQGTQVTVSS | high polyreactivity
6 | QVQLVESGGGLVQAGGSLRLSCAASGRIFGDNAMGWSRQAPGKEWELVAAITVNAGSTHYAASVKGRFTISRDNAKNTVYLQMNSLKPEDTAVYYCAKQTAPVTGVGPYFYWGQGTQVTVSS | low polyreactivity
7 | QVQLVESGGGLVQAGGSLRLSCAASGIIFPRYAMGWYRQAPGKERELVAAITIGGRTNYADSVKGRFTISRDNAKNTVYLQMNSLKPEDTAVYYCAAQTYVPYYEYDYWGQGTQVTVSS | low polyreactivity
8 | QVQLEESGGGLVQAGGSHRLSCPASGRIFRANAMGWYRQAPGKERELLAAITRSGGSTYYADSVKGRFTISRDNAKNTVYLHMISLKPEDTAVYYWNARTRFDDGYDYWGQGTQVTVSS | high polyreactivity
9 | QVQLVESGGGLVQAGGSLRLSCAASGSIFSRYAMGWYRQAPGKERELVAAISSSGSSTYYADSVKGRFTISRDNAKNTVYLQMNSLKPEDTAVYYCAATGYPRFGYWGQGTQVTVSS | high polyreactivity
10 | QDQLVESGGGLVQAGGSLRLSSAASGRTFCYNTKGWYRQSPGKERELLAAINYSGGSTYYADSVKGRFTISRDNAKNTVYLQMNSLKPEDTAVYYWNAKPRWYVPYDYWGQGTQVNVSS | high polyreactivity
11 | QVQLVESGGGLVQAGGSLRLSCAAYGRIFNEYAKGWYRQAPGKERELVAAITYSDDSTYYADSVKGRFTISRDNAKNTVYLQLNSLKPEDTAVYYCNADTPVWDGHAYPVDYWGQGTQVTVSS | low polyreactivity
12 | QVQLVESGGGLVQAGGSLRLSCAASGRTFAPYAMGWYRQAPGKERQLVAAISQRGGSTYYADSVKGRFTISRDNAKNTVYLQMNSLKPEDTAIYYCAATKYFYRLSSAFSFGTYGYWGQGTQVTVSS | low polyreactivity
13 | QVQLVESGGGLVQAGGSLRLSCAASGSTFSTYAMGWSRLAPGKERELVATISKRGGSTYYADSVKGRFTISRDNAKNTVYLQMNSLKPEDTAVYYCAARWQWLNGYYYWGQGTQVTVSS | high polyreactivity
14 | QVQLVESGGGLVQAGGSLRLTCAASGFIFRYYAMGWYRQAPGKERELVAAISRSGGSTYYADSVKGRFTISRDNAKNTVYLQMNSLKPEDTAVYYCAAKDGRSYYDRTPMDYWGQGTQVTVSS | low polyreactivity
15 | QVQLVESGGGLVQAGGSLRLSCAASGRTFYPYAMGWYRQAPGKERELVAAIRSSGGTTYYADSVKGRFTISRDNAKNTVYLQMNSLKPEDTAVYYCAAYVDRQGGYYWGQGTQVTVSS | high polyreactivity
16 | QVQLVESGGGLVQAGGSLRLSCAASGRIFSFNARGWYRPAPGKETELVAGITYGGNTYYADSVKGRFTISRDNAKNTVYLQMNSLKPEDTAVYYCAADGVYDQNLYGFWGQGTQVTVSS | low polyreactivity
17 | QVQLVESGGGLVQAGGSLRLSCAASGRTFIVYAMGWYRQAPGTERELVAGITRGSTTYADSVKGRFTISRDNATNTVYLQMNSLKPEDTAVYYCAARSSRRGPISEGDYWGQGTHVTVSS | high polyreactivity
18 | QVQLVESGGGLVQAGGSLRLSCAASGRIFYINAMGWSRQAPGKERELVAAITEGGVSTYYADSVKGRFTISRDNAKNTVYLQMNSLKPEDTAVYYCNTTGGPDGIVIYEYWGQGTQVTVSS | low polyreactivity
19 | QVQLVESGGGLVQAGGSLRLSCAASGSIISYYAMGWYRQAPGKERELVAAISRGGGRTYYADSVKGRFTISRDNAKNTVYLQMNSLKPEDTAVYYCAVTPVRFASGGAWMDYWGQGTQVTVSS | high polyreactivity
20 | QVQLVESGGGLVQAGGSLRLSCAASGSIFWYYAMGWYRQAPGKERELVASISSSGGSTYYADSVKGRFTISRDNAKNTVYLQMNSLKPEYTAVYYCAKRTNWGYWYNSWGQGTQVTVSS | high polyreactivity
21 | QVQLVESGGGLVQAGGSLRLSCAASGSTFWVNALGWSRQAPGKERELVAVITVTGSRTYYADSVKGRFTISRDNAKNTVYLQMNTLKPEDTAVYYCAADRRRVQYKFDYWGQGTQVTVSS | low polyreactivity
22 | QVHLVESGGGLVQAGGSLRLSCASSGSIFRWYAMGWYRPAPGKERELVAAISTSGGNTYYADSVKGRFTISRDNAKNTVYLQMNSLKPEDTAVYYCNALWYRSLSYRYDYWGQGTQVTVSS | high polyreactivity

Row | Sequence | polyreactivity (PSR sort gate)
23 | QVQLVESGGGLVQAGGSLRLSCAASGRIFWWYAMGWYRQAPGKERELVASISSRGTSTYYADSVKGRFTISRDNAKHTVYLQMNSLKPEDTAFYYCAARRPGRTSQDRYKYDYWGQGTQVTVSS | high polyreactivity
24 | QVQLVEAGGGLVQAGGSLRLSCAASGRIFYQNTMGWYIQAPGKERELVAAISKSGGRTYYADSVKGRFTISRDNAKNTVYLQMNSLKPEDTAVYYCDQGYASEMDYWGQVTQVTVSS | high polyreactivity
25 | QVQLVESGGGLVQAGGSLRFSCAASGTFVPYAMGWYRQAPGKEMELVARITWRGGSTYYADSVKGRFTISRDNAKNTVDLQLNSLKPEDTAVYYCATVSDNRYYYWGQGTQVTVSS | low polyreactivity
26 | QVQHVESGGGLLQAGGSLRLSCAASGITFWPYAMGWYRQAPGKERELVAAIRASVGRTYYADSVKGRFTISREYAKNTVYLQMNSLIPVDTAVYYCNAYGRYGKFRVEYDYWGQGTQVTVSS | low polyreactivity
27 | QVQLVESGGGLVQAGGSLRLSCAASGFTLGYNAMGWYRQAPGKERELVAGITWSGGSTSYADSVKGRFTISRDNAKNTVYLQMYSLKPADTAVYYCAKLRRYSGWLPWPYAYDYWGQGTQVTVSS | high polyreactivity
28 | QVQLVESGGGLVQAGGSLRLSCAASGSILQSYAMGWYRQAPGKERELVAAISGSGGSTYYADSVKGRFTISRDNAKNTVYLQMNSLKPEDTAVYYCAKGPLYRTSRGEFGYWGQGTQVTVSS | low polyreactivity
29 | QVQHVESGGGLVQAGGSLRLSCAASGFIFSTNAMGRYRQAPGKERELVATIRSGGSTNYADSVKGRFTISRDNAKYTVYLQMNSLKPEDTAVYYCNVDDTSWTTSGGRFGQVEYDYWGQGTQVTVSS | low polyreactivity
30 | QVQLVESGGGLVQAGGSLRLSCAASGSTFRGNAMGWYRPAPGKERELVASITGGGSTNYADSVKGRFTISRDNAKNTVYVPMNSLKPEDTAGYYCAADWGADFYWGQGTQVTVSS | low polyreactivity
31 | QVQLVESGGGLVQAGGSLRLSCAASGFIFGGNAMGWYRQAPGKERELVAAITARSGSTYYADSVKGRFTISRDNAKNTVYLQMNSLKPEDTAVYYCATPVYRSTYEYDYWGQGTQVTVSS | low polyreactivity
32 | QVQLEESGGALVQAGGSLRLSCAASGNTFGPKAMGWYRQAPGKERELVASINIGGRTNYADSVKGRFTISRDNAKNSVYLQLKSLKPEDTAVYYCNAGSGVQVVWYNAYREYEYWGQGTQVTVSS | low polyreactivity
33 | QVQLVESGGGLVQAGGSLRLSCAASGSTFHGNAMGWYRQAPGKERELVAAISRSGGSTYYADSVKGRFTISRDNEKNTVYLQMNSLKPEDNAVYYCAADRPYYPLKYDYWGQGTQVTVSS | high polyreactivity
34 | QVQLVESGGGLVQAGGSLRLSCAASGSTFYPYLIGWYRQAPGKERELLPAISGGGRTYYADSVKGRFTISRDNAKNTVYLQMNSLKPEDTAVYFCAARYTTYSGRGTRPAGIRYDYWGQGTQVTVSS | high polyreactivity
35 | QVQLVESGGALVQAGGSLRLSCAASGFTFSAYAMGWYRQAPVKEREMVASISRGGITNYADSVKGRFTISRDNAKNTVYLQMNSLQPEDTAFYYCAVDYSFRYDYVQRYYYWGQGTQVSVSS | high polyreactivity
36 | QVQLVESGGCLVQAGGSLRLSCAASGSTFSWYTMGWYRQAPGKERELVAAITRGGTTYYADSVKGRFTISRDNAKNTVYLQMNSLKPEDSAVYYCAARYSRDVRMGYWGQGTQVTVSS | high polyreactivity
37 | QVQLVESGGGLVQAGGSLRLSCAASGFIFSEYAMGWYRQAPGKDMELVAAISSGGNTYYADSVKGRFTISRDNAKNTVYLQMNSLKTEDTAVYYCNADNYAFYTQRPLDGSATYDYWGQGTQVTVSS | low polyreactivity
38 | QVQLVESGGGLVQAGGSLRLSCAASGFTCYIYAMGWYRQAPGKERELVAGITSGGTNYADSVKGRFTISRDNAKNTVYLQINSLKPEDTAVYYCATDYYDDVTIGYDYWGQGTQVTFSS | low polyreactivity
39 | QVQLVESGGCLVQAGGSLRLIRDASGFIIRPYAMGWYRQAPGKEREFVAAITGGGSTYYADSVKGRFTISRDNAKNTVYLQMNSLKPEDTAVYYCNADRRRRSGGFAGWHFQRKDYWGQGTQVTVSS | low polyreactivity
40 | QVQLVESGGGLVQAGGSLRLSCAASGSTFSGYAMGWYRQAPGKERDLVAAITKSGGRTYYADSVKGRFTISRDNAQNTVYLQMNSLKQEDTAVYYCAKAYPGTYREYDYWGQGTQVTVSS | high polyreactivity
41 | QVQLVESGGGIVQAGRSLRLSCAASGRIFYTNVMGWYRQAPGKERELDAAISSAGTTYYADSVKGRFTISRDNAKNTVYLQMNSLKPEDTAVYYCAADQVAYYGFDYWGQVTQVTVSS | low polyreactivity
42 | QDQLGESGGGIVQAGGSLRLSCASSGINFLDKAMGWYRPAQGKETELVAAYADSVKGRFTISRDNAKNTVYLQMNSLSAEDTAVYYCNAGWIRYYGFSIVSYDYWGQGTQVTVSS | low polyreactivity
43 | QVQLVESGGGLVQAGGSLRLSCAASGRILKYYAMAWYREAPGKERELVAAIWSGGSTYYADSVKGRFTISRDNAKNTVYLLMNSLKPEDTAVYYCNAEYQWGGYGYDYWGQGTQVTVSS | low polyreactivity
